{"source": "paper PMC11046469", "about": "“Leveraging a Phage-Encoded Noncanonical Amino Acid: A Novel Pathway to Potent and Selective Epigenetic Reader Protein Inhibitors” (ACS Central Science, 2024)", "key": {"[1]": {"target": "T1, ENL YEATS domain (His-ENL YEATS) (Homo sapiens, UniProt Q03111)", "T1 construct": "(aa 1−148) was cloned in pET19b; made in house; host or cells: E. coli BL21(DE3pLysS)", "T1 sequence (Q03111 1-148)": "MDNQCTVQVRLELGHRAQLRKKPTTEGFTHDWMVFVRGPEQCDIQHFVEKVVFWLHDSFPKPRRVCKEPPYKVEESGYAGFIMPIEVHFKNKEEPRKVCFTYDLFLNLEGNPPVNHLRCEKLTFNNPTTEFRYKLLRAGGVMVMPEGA", "assay": "AlphaScreen inhibition of ENL YEATS binding to biotinylated H3K27cr peptide", "details": "mean ± SD, n = 3", "source_text": "(§1) To test the inhibition potency of the two selected peptides for the ENL YEATS domain, ENL-S1 and ENL-S2 were chemically synthesized through solid-phase peptide synthesis (SPPS) and evaluated by an AlphaScreen assay. In this assay, a biotinylated H3K27cr peptide and a 6xHis-tagged ENL YEATS domain (His-ENL YEATS) were immobilized on PerkinElmer streptavidin donor and nickel-chelating (Ni-NTA) acceptor beads, respectively. The use of a His-ENL YEATS instead of the original AviSUMO-ENL YEATS construct in the assay prevents potential false positive results derived from ligands which bind to the SUMO protein but not to the ENL YEATS domain. […] We then assessed the binding affinity of two ligands for the ENL YEATS domain using biolayer interferometry (BLI). Briefly, His-ENL was immobilized onto Ni-NTA functionalized biosensors to measure the binding kinetics of target peptides at different concentrations. […] As a small peptide directly selected from a phage display library, this level of high potency was unexpected. […] However, shorter-than-10-mer linear peptides with nanomolar binding potency have rarely been directly selected from phage display libraries. One example was S2P03, a 7-mer peptide that has a KD value as 49 ± 9 nM to bind to SIRT2.[10] This peptide contained BuK and was identified also from a BuK-containing phage display library using the active site-directed ligand selection technique. Taken together, the two examples confirmed that utilizing phage display libraries incorporated with a ncAA serving as a ligand for a protein target for active site-directed ligand selection is a successful method for identifying ultrahigh potency ligands for epigenetic proteins including both enzymes and readers. For ENL-S1 and ENL-S2, their determined kon and koff values were 6.23 ± 0.07 × 10^4 M^–1 s^–1, […] and […], 5.54 ± 0.02 × 10^–3 s^–1, respectively. Compared to ENL-S2, ENL-S1 has faster binding to the ENL YEATS domain and slower release from it, indicating its potential long-term action on the ENL YEATS inhibition. […]\nCharacterization of Selected Peptide Inhibitors\nAlphaScreen Assay to Validate ENL Inhibitors:\nHis-ENL, His-AF9 (aa 1-149, EpiCypher), and biotinylated H3K27cr (aa 15-33, EpiCypher) were used to assay the synthesized inhibitors. The lyophilized peptide inhibitors were dissolved in DMF […]\nand serially diluted into assay buffer (50 mM HEPES, 100 mM NaCl, 0.1% BSA, 0.05% CHAPS, pH 7.4) and incubated in the presence of 120 nM His-tagged protein at 37 °C for 30 minutes. 12.5 μL of biotinylated H3K27cr (400 nM) was aliquoted into a light gray 384-well Alphaplate (Perkin Elmer) and incubated at 37 °C. 12.5 μL of the inhibitor/protein solution was added to the H3K27cr solution, and incubated for 30 minutes at 37 °C. 25 μL of AlphaScreen histidine (nickel chelate) detection beads (Perkin Elmer) was added at 20 μg/mL each bead (streptavidin donor beads and nickel chelate acceptor beads), and the plate was incubated at 37 °C for 30 minutes. The plate was cooled to room temperature for 10 minutes, and then the beads were excited at 680 nm and the luminescence at 615 nm was read. […]\nBiolayer […]\ninterferometry assays were performed in 96 well plates (GreinerBio-One, polypropylene, flat-bottom) using an Octet Red96 System (Sartorius). Wells were filled with 200 μL of assay buffer, blocking buffer (assay buffer + 0.1% BSA), protein solution, peptide solution, regeneration solution, and reload solution. For immobilization, His-tagged proteins were immobilized onto Ni-NTA sensors at 20 for 600 s. Sensors were then dipped into blocking buffer for 180 s, assay […] buffer for 300 s, peptide solution for 300 s, and back to assay buffer for 300 s. If multiple samples were tested, Ni-NTA sensors can be reconditioned in regeneration (10 mM glycine, pH 1.7) solution followed by reload solution (10 mM NiCl2) for 30 and 60 s, respectively. Measurements […]"}, "[2]": {"target": "T2, ENL YEATS domain (His-ENL) (Homo sapiens, UniProt Q03111)", "T2 construct": "(aa 1−148) was cloned in pET19b; made in house; host or cells: E. coli BL21(DE3pLysS)", "T2 sequence (Q03111 1-148)": "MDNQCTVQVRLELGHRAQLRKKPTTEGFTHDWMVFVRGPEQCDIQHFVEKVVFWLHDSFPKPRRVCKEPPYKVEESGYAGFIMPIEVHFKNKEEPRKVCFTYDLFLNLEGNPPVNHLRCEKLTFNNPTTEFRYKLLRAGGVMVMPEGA", "assay": "Biolayer interferometry (BLI) binding to ENL YEATS", "details": "BLI", "source_text": "as §1\nBiolayer Interferometry to Validate ENL Ligands:\nHis-ENL, His-AF9 (aa 1-149, EpiCypher), His-GAS41 (aa 15-160, EpiCypher), and YEATS2-His (aa 200-345, EpiCypher) were reconstituted in water and diluted into assay buffer (20mM Tris, 300 mM NaCl, pH 7.9) for immobilization onto Octet Ni-NTA biosensors (Sartorius). Lyophilized peptides were dissolved in DMF and diluted to designated concentrations in assay buffer. Biolayer interferometry assays were performed in 96 well plates (GreinerBio-One, polypropylene, flat-bottom) using an Octet Red96 System (Sartorius). Wells were filled with 200 μL of assay buffer, blocking buffer (assay buffer + 0.1% BSA), protein solution, peptide solution, regeneration solution, and reload solution. For immobilization, His-tagged proteins were immobilized onto Ni-NTA sensors at 20 for 600 s. Sensors were then dipped into blocking buffer for 180 s, assay […] buffer for 300 s, peptide solution for 300 s, and back to assay buffer for 300 s. If multiple samples were tested, Ni-NTA sensors can be reconditioned in regeneration (10 mM glycine, pH 1.7) solution followed by reload solution (10 mM NiCl2) for 30 and 60 s, respectively. Measurements were carried out at 30 °C. Data were analyzed within the ForteBio Data Analysis software. Data were processed by double subtracting ligand only and protein only reference wells and aligning the data to the beginning of the association. Then, global kinetic fit was performed for all sensogram curves with a 1:1 model. Steady state KD values were reported.\nAlphaScreen Assay with Biotinylated-ENL-S1:\nThe AlphaScreen assay was carried out in 384-well plates. Manual assay setup was performed in a 40 uL reaction buffer (50 mM HEPES pH 7.4, 100 mM NaCl, 0.1% bovine serum albumin, and 0.05% CHAPS). 10 µL of varying concentrations of His-ENL YEATS (0-300 nM) and 10 µL of […]"}, "AF9 YEATS domain [3]": {"target": "T3, AF9 YEATS domain (human, UniProt P42568 1-138)", "T3 chain": "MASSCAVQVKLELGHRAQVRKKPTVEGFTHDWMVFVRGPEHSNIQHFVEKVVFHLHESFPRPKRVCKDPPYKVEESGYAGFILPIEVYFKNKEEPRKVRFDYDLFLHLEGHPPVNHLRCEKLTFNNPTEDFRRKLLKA"}, "AF9 YEATS domain [4]": {"target": "T3, AF9 YEATS domain", "assay": "AlphaScreen or HTRF; competition: AF9 YEATS and its corresponding acylated histone peptide; test peptide varied; n = 3"}, "[5]": {"target": "T4, 6xHis-tagged ENL YEATS domain (human, UniProt Q03111 1-148)", "T4 chain": "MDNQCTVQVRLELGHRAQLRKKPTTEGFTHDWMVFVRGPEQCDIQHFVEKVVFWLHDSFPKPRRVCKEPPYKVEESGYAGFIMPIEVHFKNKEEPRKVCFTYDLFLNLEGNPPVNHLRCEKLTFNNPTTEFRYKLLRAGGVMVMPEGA", "assay": "AlphaScreen or HTRF; competition: biotinylated H3K27cr peptide on streptavidin donor beads, His-ENL YEATS on nickel-chelating (Ni-NTA) acceptor beads; test peptide varied; n = 3"}, "[6]": {"target": "T5, 6xHis-tagged ENL YEATS domain, Q03111", "T5 chain": "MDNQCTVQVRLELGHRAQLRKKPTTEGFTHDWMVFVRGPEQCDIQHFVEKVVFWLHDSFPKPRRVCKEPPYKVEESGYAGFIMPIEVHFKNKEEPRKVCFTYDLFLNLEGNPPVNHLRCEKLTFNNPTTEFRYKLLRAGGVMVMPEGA", "assay": "AlphaScreen", "details": "chain shown with the change; n = 3; parent: 62.6 nM"}}, "note": "Where a SMILES comes first, the peptide text is derived from it. Where no end group is shown, it is not given here. The star is where a group is joined. Oxazole(5-CO) = O=C(c1cnco1)*; Crotonyl(E) = C/C=C/C(=O)*; 2Furoyl = O=C(c1ccco1)*; Butyryl = CCCC(=O)*"}
{"molecule": "CCCC(=O)NCCCC[C@H](NC(=O)[C@H](CCC(=O)O)NC(=O)[C@@H](NC(=O)[C@@H](NC(=O)[C@H](Cc1c[nH]c2ccccc12)NC(=O)[C@@H](N)Cc1c[nH]c2ccccc12)[C@@H](C)CC)[C@@H](C)CC)C(=O)NCC(N)=O", "note": "[ENL-S2] (H-WWIIEK(Butyryl)G-NH2; N-terminus assumed)", "values": [{"measurement": "IC50", "setting": "[1]", "result": 1220, "unit": "nM"}, {"measurement": "Kd", "setting": "[2]", "result": "881 ± 9", "unit": "nM"}, {"measurement": "koff", "setting": "[2]", "result": 0.00554, "unit": "s⁻¹"}]}
{"molecule": "CCCC(=O)NCCCC[C@H](NC(=O)[C@H](Cc1ccc(O)cc1)NC(=O)[C@H](C)NC(=O)[C@H](Cc1ccc(O)cc1)NC(=O)[C@@H](NC(=O)[C@H](CC(=O)O)NC(=O)[C@@H](N)Cc1ccc(O)cc1)C(C)C)C(N)=O", "note": "[ENL-S1A5] (H-YDVYAYK(Butyryl)-NH2; N-terminus assumed)", "values": [{"measurement": "IC50", "setting": "[1]", "result": "> 2000", "unit": "nM"}]}
{"molecule": "YDVYCYK(Oxazole(5-CO))", "note": "[ENL-S1o]", "values": [{"measurement": "IC50", "setting": "AF9 YEATS domain [3]", "result": 231, "unit": "nM"}, {"measurement": "fold lower potency (IC50) toward AF9 YEATS than toward ENL YEATS", "setting": "AF9 YEATS domain [4]", "result": 23, "unit": "fold"}, {"measurement": "IC50", "setting": "[5]", "result": 10, "unit": "nM"}]}
{"molecule": "YDVYCYK(2Furoyl)", "note": "[ENL-S1f]", "values": [{"measurement": "IC50", "setting": "AF9 YEATS domain [3]", "result": 168, "unit": "nM"}, {"measurement": "fold lower potency (IC50) toward AF9 YEATS than toward ENL YEATS", "setting": "AF9 YEATS domain [4]", "result": 7.7, "unit": "fold"}, {"measurement": "IC50", "setting": "[5]", "result": 22, "unit": "nM"}]}
{"molecule": "ADVYCYK", "note": "[ENL-S1 Y1A]", "values": [{"measurement": "IC50", "setting": "[6]", "result": 248, "unit": "nM"}]}
{"molecule": "YDVACYK", "note": "[ENL-S1 Y4A]", "values": [{"measurement": "IC50", "setting": "[6]", "result": 718, "unit": "nM"}]}
{"molecule": "YDAYCYK", "note": "[ENL-S1 V3A]", "values": [{"measurement": "IC50", "setting": "[6]", "result": "> 5000", "unit": "nM"}]}
{"molecule": "YDVYAYK", "note": "[ENL-S1 C5A]", "values": [{"measurement": "IC50", "setting": "[6]", "result": "> 2000", "unit": "nM"}]}
{"molecule": "YDVYCYK(Crotonyl(E))", "note": "[ENL-S1c]", "values": [{"measurement": "IC50", "setting": "AF9 YEATS domain [3]", "result": 347, "unit": "nM"}, {"measurement": "fold lower potency (IC50) toward AF9 YEATS than toward ENL YEATS", "setting": "AF9 YEATS domain [4]", "result": 18, "unit": "fold"}]}
{"molecule": "YAVYCYK", "note": "[ENL-S1 D2A]", "values": [{"measurement": "IC50", "setting": "[6]", "result": 52.2, "unit": "nM"}]}
